# Measured values: patent US20030229203
# T1: RANTES(1-68), P13501
# T1 chain: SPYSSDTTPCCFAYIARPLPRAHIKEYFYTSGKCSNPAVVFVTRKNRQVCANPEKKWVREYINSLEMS
# B1: enzymatically deficient (E-) recombinant soluble human CD26 (sCD26) (protein)
# chain: NKGTDDATADSRKTYTLTDYLKNTYRLKLYSLRWISDHEYLYKQENNILVFNAEYGNSSVFLENSTFDEFGHSINDYSISPDGQFILLEYNYVKQWRHSYTASYDIYDLNKRQLITEERIPNNTQWVTWSPVGHKLAYVWNNDIYVKIEPNLPSYRITWTGKEDIIYNGITDWVYEEEVFSAYSALWWSPNGTFLAYAQFNDTEVPLIEYSFYSDESLQYPKTVRVPYPKAGAVNPTVKFFVVNTDSLSSVTNATSIQITAPASMLIGDHYLCDVTWATQERISLQWLRRIQNYSVMDICDYDESSGRWNCLVARQHIEMSTTGWVGRFRPSEPHFTLDGNSFYKIISNEEGYRHICYFQIDKKDCTFITKGTWEVIGIEALTSDYLYYISNEYKGMPGGRNLYKIQLSDYTKVTCLSCELNPERCQYYSVSFSKEAKYYQLRCSGPGLPLYTLHSSVNDKGLRVLEDNSALDKMLQNVQMPSKKLDFIILNETKFWYQMILPPHFDKSKKYPLLLDVYAGPCSQKADTVFRLNWATYLASTENIIVASFDGRGSGYQGDKIMHAINRRLGTFEVEDQIEAARQFSKMGFVDNKRIAIWGWAYGGYVTSMVLGSGSGVFKCGIAVAPVSRWEYYDSVYTERYMGLPTPEDNLDHYRNSTVMSRAENFKQVEYLLIHGTADDNVHFQQSAQISKALVDVGVDFQAMWYTDEDHGIASSTAHQHIYTHMSHFIKQCFSLP
# Target: T1, RANTES(1-68), P13501
protein,measurement,value
B1,hydrolysis of rhRANTES by sCD26 (ES-MS of cleavage products),shortened RANTES was not generated by incubation of the chemokine with a mutant sCD26 deficient in enzyme activity
